Experimental data: patent US20140248710A1
Ends that are not written are not given here.

Target: G-131-C affinity purified goat polyclonal antibody against the N-terminus of cardiac troponin I (BiosPacific, Emeryville, Calif.)
Test: Competition FRET: the unlabeled N-terminal CTnI peptide is titrated against the labeled peptide-oligo conjugates for binding to G-131-C. The antibody concentration of the inset is not given. [inset]

MADGSSDAAREPRPAC (not fully specified) [Unlabeled N-terminal CTnI peptide] gave an IC50 (read off the curve) of 40 nM.
